For experiment [1], the target named is T1, full-length wild type recombinant human LCAT (human, UniProt P04180 25-440).
T1 construct: also called huLCAT; hLCAT
T1 sequence: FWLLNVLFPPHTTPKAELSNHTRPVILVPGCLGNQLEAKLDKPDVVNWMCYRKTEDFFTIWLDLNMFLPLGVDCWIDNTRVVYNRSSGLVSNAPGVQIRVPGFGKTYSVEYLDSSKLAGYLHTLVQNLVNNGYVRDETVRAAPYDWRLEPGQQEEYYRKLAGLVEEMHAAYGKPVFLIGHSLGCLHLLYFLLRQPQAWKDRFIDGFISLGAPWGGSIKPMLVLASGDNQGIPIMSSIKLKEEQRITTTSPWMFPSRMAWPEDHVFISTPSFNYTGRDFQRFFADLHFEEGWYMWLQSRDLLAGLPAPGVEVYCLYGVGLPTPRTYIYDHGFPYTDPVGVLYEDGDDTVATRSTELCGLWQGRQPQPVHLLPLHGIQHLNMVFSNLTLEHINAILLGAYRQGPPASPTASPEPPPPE
As to the kind of experiment: BIAcore 3000 SPR, antibody captured on goat anti-human IgG, LCAT as analyte, 1:1 fit. On the technique in general: Surface plasmon resonance follows binding to a sensor surface in real time, without labels.
Procedure: (§1) Biosensor analysis was conducted at 25° C. in a HBS-EP buffer system (10 mM HEPES pH 7.4, 150 mM NaCl, 3 mM EDTA, 0.005% Surfactant P20) using a Biacore 3000 optical biosensor equipped with a CMS sensor chip. All reagents were kept at 4° C. prior to injection.
(§2) Goat anti-human IgG (30 mg/mL) (abcam) was immobilized (10000 RU) over flow cells 1-4 via standard amine coupling and followed by ethanolamine blocking. Each antibody (150 ng/mL) was captured (−100 RU) on a separate flow cell and analyzed simultaneously in sets of three. Flow cell 1 was used as the reference flow cell.
(§3) The data were fit to a 1:1 binding model (global Rmax) via Scrubber2 software. In some cases the highest concentrations were omitted to provide a better fit to the 1:1 binding model.

Experiment [2] concerns the target T2, full-length wild type recombinant cynomolgus LCAT (cynomolgus monkey, UniProt Q08758 25-440 (Papio anubis entry)).
T2 construct: also called cyno LCAT
T2 chain: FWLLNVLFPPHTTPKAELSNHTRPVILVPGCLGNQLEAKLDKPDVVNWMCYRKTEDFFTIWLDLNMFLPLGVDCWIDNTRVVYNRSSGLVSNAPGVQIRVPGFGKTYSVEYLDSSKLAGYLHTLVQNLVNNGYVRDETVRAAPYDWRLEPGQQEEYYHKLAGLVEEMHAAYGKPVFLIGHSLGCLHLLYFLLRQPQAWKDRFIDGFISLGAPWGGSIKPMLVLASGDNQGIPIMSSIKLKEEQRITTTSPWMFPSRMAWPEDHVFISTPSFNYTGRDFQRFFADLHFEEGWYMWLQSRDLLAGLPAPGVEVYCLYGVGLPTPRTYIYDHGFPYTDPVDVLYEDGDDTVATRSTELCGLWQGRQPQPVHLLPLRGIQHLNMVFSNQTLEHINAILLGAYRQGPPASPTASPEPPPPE
The experiment is described as above.
Procedure: as §1, §2, §3

The target of experiment [3] is T2, full-length wild type recombinant …. As to the kind of experiment: BIAcore 3000 SPR, antibody captured on goat anti-human IgG, LCAT as analyte; cyno LCAT.
Procedure: as §1, §2, §3
Experiment [4] deals with T1, full-length wild type recombinant human …. As to the kind of experiment: cell-based or functional assay.
For experiment [5] the target is unchanged. As to the kind of experiment: cell-based or functional assay. This is another data set of the same source.
Experiment [6] has the same target. As to the kind of experiment: Binding Affinity (nM), Table 10; method not restated (BIAcore of Example 3 presumed).
Experiment [7] has as its target T2, full-length wild type recombinant …. The experiment is described as above.
In experiment [8] the target is T1, full-length wild type recombinant human …. As to the kind of experiment: Binding Affinity (nM), Table 12; method not restated (BIAcore of Example 3 presumed).
Experiment [9] concerns the target T2, full-length wild type recombinant …. The experiment is described as above.
Experiment [10] deals with T1, full-length wild type recombinant human …. As to the kind of experiment: cell-based or functional assay. This is another data set of the same source.
The target in experiment [11] is T3, full-length wild type recombinant human LCAT protein that carries a His and Flag tag at the C-terminus (human, UniProt P04180 25-440).
T3 sequence: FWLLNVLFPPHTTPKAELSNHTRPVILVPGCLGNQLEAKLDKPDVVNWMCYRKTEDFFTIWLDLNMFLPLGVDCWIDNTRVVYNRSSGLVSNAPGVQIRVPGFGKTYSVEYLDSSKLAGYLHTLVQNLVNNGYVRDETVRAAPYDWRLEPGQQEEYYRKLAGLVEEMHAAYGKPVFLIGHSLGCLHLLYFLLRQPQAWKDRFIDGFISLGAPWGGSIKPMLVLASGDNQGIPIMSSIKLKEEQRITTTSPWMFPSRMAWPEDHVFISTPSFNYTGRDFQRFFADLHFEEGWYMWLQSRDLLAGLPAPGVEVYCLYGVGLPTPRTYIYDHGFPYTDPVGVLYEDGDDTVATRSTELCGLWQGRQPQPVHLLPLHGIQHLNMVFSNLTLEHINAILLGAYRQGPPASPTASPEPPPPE
As to the kind of experiment: cell-based or functional assay.

Like-named read-outs stand apart in the source and are kept apart here.

B1: 25B7 (antibody, V domains shown)
VH: EVQLLESGGGLVQPGGSLRLSCAASGFTFRSYAMNWVRQAPGKGLEWVSTISGSGGSTHYADSVKGRFTISRDNSKNTLYLQLSSLRAEDTAVYYCAKGIAAADYYYYYGMDVWGQGTTVTVSS
VL: SYEVTQPPSVSVSPGQTASITCSGDKLGDKNACWYQQRPGQSPVLVIYQNSKRPSGIPERFSGSNSGNTATLTISGTQAMDEADYYCQAWDSSTVFGGGTRLEVLG
notes: The heavy chain entry ends after CH1 with a tag remnant
Take B1: the figures for the Kd in [1], in experiment [2] and in experiment [3] were 2.24 nM, 1.02 nM and 1.2 nM, respectively.

B2: 27C3 (antibody, human IgG2, lambda, V domains shown)
VH: QVQLQESGPGLVKPSQTLSLTCTVSGASISSGGYNWSWIRQHPGKGLEWIGYIYYSGSTYYNPSLKSRVTISVDTSKNQFSLKLSSVTAADTAVYYCARERGYCSSTSCSRVMDVWGQGTTVTVSS
VL: SSELTQDPAVSVALGQTVRITCQGDSLRSYYASWYQQKPGQAPVLVIYGKNNRPSGIPDRFSGSSSGNTASLTITGAQAEDEADYYCNSRDNIGNHQVFGGGTKLTVLG
notes: Incompletely N-glycosylated at Asn40 (AHo) of CDRH1
For B2, the “EC50 (read off the curve)” value in [4] is roughly 4 mgAb/mL Plasma. In addition, the Kd (as a rule, the equilibrium constant for the complex coming apart) was determined as 1.15 nM in [1], 128 nM in [2], 1.15 nM in [6] and 128 nM in experiment [7]. The Activity in [5] was determined as 100%.

B3: 27C3(S42A, S131T, M136I/I112V) (antibody, human IgG2, lambda, V domains shown)
VH: QVQLQESGPGLVKPSQTLSLTCTVSGASISSGGYNWAWIRQHPGKGLEWIGYIYYSGSTYYNPSLKSRVTISVDTSKNQFSLKLSSVTAADTAVYYCARERGYCSSTTCSRVIDVWGQGTTVTVSS
VL: SSELTQDPAVSVALGQTVRITCQGDSLRSYYASWYQQKPGQAPVLVIYGKNNRPSGIPDRFSGSSSGNTASLTITGAQAEDEADYYCNSRDNVGNHQVFGGGTKLTVLG
notes: IgG2 lambda; The mutations are already in the entries
Turning to B3, the Kd amounted to 3 nM in experiment [8] and 198 nM in experiment [9]. In experiment [10], the Activity was 65%.

B4: 27C3(S42A, M136I/N107G, I112V) (antibody, human IgG2, lambda, V domains shown)
VH: QVQLQESGPGLVKPSQTLSLTCTVSGASISSGGYNWAWIRQHPGKGLEWIGYIYYSGSTYYNPSLKSRVTISVDTSKNQFSLKLSSVTAADTAVYYCARERGYCSSTSCSRVIDVWGQGTTVTVSS
VL: SSELTQDPAVSVALGQTVRITCQGDSLRSYYASWYQQKPGQAPVLVIYGKNNRPSGIPDRFSGSSSGNTASLTITGAQAEDEADYYCGSRDNVGNHQVFGGGTKLTVLG
notes: as for B3
With B4, the Kd was found to be 1.2 nM in experiment [8] and 190 nM in experiment [9]. For the same molecule, in experiment [10], the Activity came out at 70%.

B5: 27C3(S42A, S131T, V135I, M136I/N107G) (antibody, human IgG2, lambda, V domains shown)
VH: QVQLQESGPGLVKPSQTLSLTCTVSGASISSGGYNWAWIRQHPGKGLEWIGYIYYSGSTYYNPSLKSRVTISVDTSKNQFSLKLSSVTAADTAVYYCARERGYCSSTTCSRIIDVWGQGTTVTVSS
VL: SSELTQDPAVSVALGQTVRITCQGDSLRSYYASWYQQKPGQAPVLVIYGKNNRPSGIPDRFSGSSSGNTASLTITGAQAEDEADYYCGSRDNIGNHQVFGGGTKLTVLG
notes: as for B3
On to B5, for which the Kd in experiment [8] was 2.8 nM; in experiment [9], 226 nM. Further, the Activity in [10] came to 70%.

B6: 27C3(S42A, S133T, M136I/N107G, I112V) (antibody, human IgG2, lambda, V domains shown)
VH: QVQLQESGPGLVKPSQTLSLTCTVSGASISSGGYNWAWIRQHPGKGLEWIGYIYYSGSTYYNPSLKSRVTISVDTSKNQFSLKLSSVTAADTAVYYCARERGYCSSTSCTRVIDVWGQGTTVTVSS
VL: SSELTQDPAVSVALGQTVRITCQGDSLRSYYASWYQQKPGQAPVLVIYGKNNRPSGIPDRFSGSSSGNTASLTITGAQAEDEADYYCGSRDNVGNHQVFGGGTKLTVLG
notes: as for B3
Take B6: the Kd came to 0.5 nM in experiment [8] and 8 nM in [9]. The Activity in experiment [10] stood at 83%.

B7: 27C3(S42A, S131T, M136I/N107G, I112V) (antibody, human IgG2, lambda, V domains shown)
VH: QVQLQESGPGLVKPSQTLSLTCTVSGASISSGGYNWAWIRQHPGKGLEWIGYIYYSGSTYYNPSLKSRVTISVDTSKNQFSLKLSSVTAADTAVYYCARERGYCSSTTCSRVIDVWGQGTTVTVSS
VL: SSELTQDPAVSVALGQTVRITCQGDSLRSYYASWYQQKPGQAPVLVIYGKNNRPSGIPDRFSGSSSGNTASLTITGAQAEDEADYYCGSRDNVGNHQVFGGGTKLTVLG
notes: as for B3
Take B7: the Kd in experiment [8] came to 1.3 nM; in [9], 181 nM. For the same molecule, in experiment [10], the Activity was 89%.

B8: 27C3(S42A, S133T, M136I/I112V) (antibody, human IgG2, lambda, V domains shown)
VH: QVQLQESGPGLVKPSQTLSLTCTVSGASISSGGYNWAWIRQHPGKGLEWIGYIYYSGSTYYNPSLKSRVTISVDTSKNQFSLKLSSVTAADTAVYYCARERGYCSSTSCTRVIDVWGQGTTVTVSS
VL: SSELTQDPAVSVALGQTVRITCQGDSLRSYYASWYQQKPGQAPVLVIYGKNNRPSGIPDRFSGSSSGNTASLTITGAQAEDEADYYCNSRDNVGNHQVFGGGTKLTVLG
notes: as for B3
Take B8: the Kd in [8] was 0.3 nM; in experiment [9], 88 nM. Also, in experiment [10], the Activity came out at 46%.

B9: 27C3(S42A, S131T, V135I, M136I/I112V) (antibody, human IgG2, lambda, V domains shown)
VH: QVQLQESGPGLVKPSQTLSLTCTVSGASISSGGYNWAWIRQHPGKGLEWIGYIYYSGSTYYNPSLKSRVTISVDTSKNQFSLKLSSVTAADTAVYYCARERGYCSSTTCSRIIDVWGQGTTVTVSS
VL: SSELTQDPAVSVALGQTVRITCQGDSLRSYYASWYQQKPGQAPVLVIYGKNNRPSGIPDRFSGSSSGNTASLTITGAQAEDEADYYCNSRDNVGNHQVFGGGTKLTVLG
notes: as for B3
With B9, the Kd in experiment [8] stood at 3 nM; in experiment [9], 198 nM. Further, the Activity in [10] was 69%.

B10: 27C3(S42A, S133T, M136I/N107G) (antibody, human IgG2, lambda, V domains shown)
VH: QVQLQESGPGLVKPSQTLSLTCTVSGASISSGGYNWAWIRQHPGKGLEWIGYIYYSGSTYYNPSLKSRVTISVDTSKNQFSLKLSSVTAADTAVYYCARERGYCSSTSCTRVIDVWGQGTTVTVSS
VL: SSELTQDPAVSVALGQTVRITCQGDSLRSYYASWYQQKPGQAPVLVIYGKNNRPSGIPDRFSGSSSGNTASLTITGAQAEDEADYYCGSRDNIGNHQVFGGGTKLTVLG
notes: as for B3
For the molecule B10, the Kd in experiment [8] was 0.4 nM; in experiment [9] it was 62 nM. The Activity in [10] turned out to be 73%.

B11: 27C3(S42A, S131T, M136I/N107G) (antibody, human IgG2, lambda, V domains shown)
VH: QVQLQESGPGLVKPSQTLSLTCTVSGASISSGGYNWAWIRQHPGKGLEWIGYIYYSGSTYYNPSLKSRVTISVDTSKNQFSLKLSSVTAADTAVYYCARERGYCSSTTCSRVIDVWGQGTTVTVSS
VL: SSELTQDPAVSVALGQTVRITCQGDSLRSYYASWYQQKPGQAPVLVIYGKNNRPSGIPDRFSGSSSGNTASLTITGAQAEDEADYYCGSRDNIGNHQVFGGGTKLTVLG
notes: as for B3
B11: the Kd amounted to 2.8 nM in [8] and 226 nM in [9]. Further, the Activity in experiment [10] was determined as 65%.

B12: 27C3(S42A, S131T, V135I, M136I/N107G, I112V) (antibody, human IgG2, lambda, V domains shown)
VH: QVQLQESGPGLVKPSQTLSLTCTVSGASISSGGYNWAWIRQHPGKGLEWIGYIYYSGSTYYNPSLKSRVTISVDTSKNQFSLKLSSVTAADTAVYYCARERGYCSSTTCSRIIDVWGQGTTVTVSS
VL: SSELTQDPAVSVALGQTVRITCQGDSLRSYYASWYQQKPGQAPVLVIYGKNNRPSGIPDRFSGSSSGNTASLTITGAQAEDEADYYCGSRDNVGNHQVFGGGTKLTVLG
notes: as for B3
Regarding B12, the figures for the Kd in [8] and in [9] were 34 nM and 88 nM, respectively. The Activity in [10] came to 70%.

B13: 18E5 (antibody, human IgG2, kappa, V domains shown)
VH: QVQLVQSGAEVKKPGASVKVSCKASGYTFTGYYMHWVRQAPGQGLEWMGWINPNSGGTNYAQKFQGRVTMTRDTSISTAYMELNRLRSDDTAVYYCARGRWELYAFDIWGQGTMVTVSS
VL: EIVLTQSPGTLSLSPGERATLSCRASQSVSGSYLTWYQQKPGQAPRLLIYGASSRATGIPDRFSGSGSGTDFTLTISRLEPEDFAMYYCQQYGGSPPFTFGPGTKVDIKR
Regarding B13, in experiment [11], the “LCAT Activity (fold the vehicle control activity)” value was 2.5 fold. In addition, the Kd in experiment [1] turned out to be 1.01 nM.

For the origin of these results see patent US20150284471A1 (Amgen, published 2015).
